Data taken from article PMC4820838.

Target: STAT3-NTD-YFP
Assay: pair correlation of molecular brightness (pCOMB); pair correlation of brightness fluctuations along a 64-pixel confocal line scan from cytoplasm to nucleus of live HeLa cells; amplitude calibrated against free GFP, YFP or mCherry; cells stimulated with 10 nM oncostatin M for 15 min

Chain of STAT3-NTD-YFP (domain or fragment) (P40763 2-770): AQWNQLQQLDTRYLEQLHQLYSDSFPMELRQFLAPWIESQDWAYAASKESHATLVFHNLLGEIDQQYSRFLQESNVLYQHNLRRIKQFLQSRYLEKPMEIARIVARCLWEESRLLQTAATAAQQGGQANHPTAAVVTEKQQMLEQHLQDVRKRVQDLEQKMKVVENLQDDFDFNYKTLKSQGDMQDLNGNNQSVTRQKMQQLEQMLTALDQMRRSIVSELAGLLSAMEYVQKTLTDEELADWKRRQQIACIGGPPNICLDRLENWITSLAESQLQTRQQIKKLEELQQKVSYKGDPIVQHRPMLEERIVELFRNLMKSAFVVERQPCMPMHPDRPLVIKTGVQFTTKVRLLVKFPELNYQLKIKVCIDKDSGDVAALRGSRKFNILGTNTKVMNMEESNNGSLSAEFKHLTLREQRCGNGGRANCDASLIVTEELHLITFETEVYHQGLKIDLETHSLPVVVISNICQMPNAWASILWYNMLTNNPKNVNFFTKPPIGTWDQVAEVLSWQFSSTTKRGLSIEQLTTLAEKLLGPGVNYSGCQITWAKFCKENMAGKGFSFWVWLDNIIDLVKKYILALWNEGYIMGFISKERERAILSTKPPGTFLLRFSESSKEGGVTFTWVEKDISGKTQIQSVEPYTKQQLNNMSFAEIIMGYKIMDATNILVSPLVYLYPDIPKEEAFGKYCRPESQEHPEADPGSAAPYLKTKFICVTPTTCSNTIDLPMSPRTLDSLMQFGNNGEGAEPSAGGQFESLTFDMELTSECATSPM

STAT3-NTD-YFP (domain or fragment)
stoichiometry N: 2
